Assay results reported in the supplement of paper PMC7125110.
± gives the standard error. This sample holds only a part of the variants without activity.

B1: glmS ribozyme (parent)
chain: AUAAAAGCGCCAGAACUACAGAAAUGUAGUUGACGAGGAGGAGGUUUAUCGAAUUUUCGGCGGAUGCCUCCAAA

Experiments:
Settings in all cases: with glucosamine-6-phosphate
glucosamine-6-phosphate [1] = variants of: B1; experiment: self-cleavage kobs at 640 uM GlcN6P; higher = faster cleavage; RNA array
How it was run: (§1)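 Weighted Michaelis–Menten fits across concentrations supplied kcat and KM, based on kobs from one- or two-exponential decay fits to normalised per-tile medians. The data came from barcoded ribozyme variants transcribed in situ by E. coli RNA polymerase on sequenced MiSeq chips and tracked at 37 °C by a hybridised Cy3 probe. Glucosamine-6-phosphate (40 μM to 10 mM) in HEPES/KCl/Mg(OAc)2 buffer was flowed in.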

glucosamine-6-phosphate [2] = variants of: B1; experiment: self-cleavage kobs at 2500 uM GlcN6P; higher = faster cleavage; RNA array
How it was run: as §1

glucosamine-6-phosphate [3] = variants of: B1; experiment: self-cleavage kobs at 10000 uM GlcN6P; higher = faster cleavage; RNA array
How it was run: as §1

Variant	self-cleavage kobs at 640 uM GlcN6P (glucosamine-6-phosphate [1]) [s⁻¹]	self-cleavage kobs at 2500 uM GlcN6P (glucosamine-6-phosphate [2]) [s⁻¹]	self-cleavage kobs at 10000 uM GlcN6P (glucosamine-6-phosphate [3]) [s⁻¹]
A12U C67U C71G	7.19e-05 ± 2.7e-05	6.07e-05 ± 1.3e-05	4.02e-05 ± 2e-05
A6G C11U G60A C71U	< 1e-05	< 1e-05	–
A14C U49G U54G C68G	7.91e-05 ± 3.6e-05	–	–
C11U A36U G44C G62U	< 1e-05	–	–
U46G A53U G63C C67G	< 1e-05	–	–
C58G C68A	0.000125 ± 3e-05	–	–
A52G U55A C71A	7.88e-05 ± 2.3e-05	0.000169 ± 7.2e-05	–
G32C A36G G37U	< 1e-05	–	–
G13U C50A A64U U65G	< 1e-05	< 1e-05	–
A39C A42G G60C	< 1e-05	< 1e-05	–
U45G A53G G62A	< 1e-05	< 1e-05	–
A15G C16G U46G	9.78e-05 ± 2.8e-05	0.000248 ± 9.3e-05	–
C50A C61G C68U	8.62e-05 ± 2.5e-05	–	–
A64C U65C	< 1e-05	–	< 1e-05
G32C G37U G51C	< 1e-05	–	–
C10G C11G A33U C68G	4.85e-05 ± 2.2e-05	9.09e-05 ± 3.3e-05	–
A15C A33C A36C	< 1e-05	–	–
C11A U31A G60A	< 1e-05	–	–
G13U G63A C71U	< 1e-05	< 1e-05	–
G35A U54C A64C	< 1e-05	–	–
A6U G7C G13U A36C	< 1e-05	–	–
G29U U56C C61G	< 1e-05	–	–
C34U C58G U65G	< 1e-05	–	–
A52C A53G A64U	< 1e-05	< 1e-05	–
A42C A64U U69G	4.76e-05 ± 1.2e-05	9.13e-05 ± 1.9e-05	–
A14G G32A G60A C61A C67A C70U	0.000302 ± 0.00012	–	–

Variant	self-cleavage kobs at 640 uM GlcN6P (glucosamine-6-phosphate [1]) [s⁻¹]	self-cleavage kobs at 2500 uM GlcN6P (glucosamine-6-phosphate [2]) [s⁻¹]	self-cleavage kobs at 10000 uM GlcN6P (glucosamine-6-phosphate [3]) [s⁻¹]
C11U A14G A39C	0.000206 ± 5.2e-05	0.000528 ± 0.00014	–
A48U C58U A64C	< 1e-05	< 1e-05	–
A14G G29U G38C U56C	< 1e-05	–	–
U30A G38A C50A G66U	< 1e-05	–	–
U46G U55G U69G	0.000454 ± 0.00015	6.16e-05 ± 1.8e-05	–
A12G A14U A42U U54A C70G	< 1e-05	–	–
A6G C16A G44U U45A	< 1e-05	< 1e-05	–
A48U U49C U55A U56C U69C	< 1e-05	–	–
G13U G29U A39G	0.000115 ± 2.8e-05	7.21e-05 ± 2.3e-05	–
G9C A12G G29A	< 1e-05	–	–
G13U A39U A48U G51A U55G C70A	< 1e-05	–	–
A15C U45G U56C C58A C67G C68A	8.64e-05 ± 2.9e-05	–	–
C10U G38C G40A U55G	< 1e-05	< 1e-05	< 1e-05
A3C U45A U65A	0.00508 ± 0.0012	0.00657 ± 0.001	–
A33C U47G	8.08e-05 ± 3e-05	–	6.4e-05 ± 1.3e-05
A33G G60C C68G	< 1e-05	–	–
G43U C67G C70A	< 1e-05	–	–
A36U G44C C61U C71A	< 1e-05	–	–
A14G G29A G32U	0.000272 ± 0.0001	0.000568 ± 0.00014	–
A6G U30A A39U G60U	< 1e-05	< 1e-05	–
G40C U47C C68G	< 1e-05	–	–
U46G C50A C67G	0.000631 ± 0.00012	0.000506 ± 0.00017	–
A39U A53C U55C	0.000547 ± 9.5e-05	0.00232 ± 0.00029	–
G29U A53C	0.00015 ± 7.4e-05	0.00118 ± 0.00032	0.000874 ± 0.00028
G37A G41A A42C U46C	< 1e-05	–	–
G9C A33U C34G U56A	< 1e-05	–	–

Variant	self-cleavage kobs at 640 uM GlcN6P (glucosamine-6-phosphate [1]) [s⁻¹]	self-cleavage kobs at 2500 uM GlcN6P (glucosamine-6-phosphate [2]) [s⁻¹]	self-cleavage kobs at 10000 uM GlcN6P (glucosamine-6-phosphate [3]) [s⁻¹]
A6U C11G A14C G41U	< 1e-05	< 1e-05	–
C8U A36C A48G U49C	< 1e-05	< 1e-05	–
A39U U56A U65G	0.000165 ± 4.5e-05	–	0.00113 ± 0.00025
C16G A39G C71A	0.000265 ± 9.1e-05	0.000286 ± 0.00013	–
U30C A53U U57G A64C U69G	0.000129 ± 3.2e-05	0.000128 ± 5.2e-05	–
G7U A53U A64G	< 1e-05	< 1e-05	–
A33U U55C C70U	< 1e-05	–	–
C11G G29C A52G U55A C58A	< 1e-05	< 1e-05	< 1e-05
G40C G41C C68A	< 1e-05	–	–
C10U G35U	< 1e-05	< 1e-05	< 1e-05
C11A A14G G43A U45G	4.76e-05 ± 2e-05	–	–
A14G G43U G63U C70A	< 1e-05	< 1e-05	–
A6U G41A G44C C67G C70G	< 1e-05	< 1e-05	–
A14C G32C C71U	7.58e-05 ± 2.5e-05	0.000118 ± 2.6e-05	0.000332 ± 7.4e-05
U30C U31C G59U C61G C70G	< 1e-05	–	–
G29C G37U U46A	< 1e-05	< 1e-05	< 1e-05
A39C G59C C68U	< 1e-05	–	–
C34G G37C	< 1e-05	–	< 1e-05
G13U G35U G37U	< 1e-05	–	–
C34U G38U G43C	< 1e-05	–	–
G32A U57A C70G	0.000649 ± 0.00023	–	–
C34U A39U	< 1e-05	< 1e-05	< 1e-05
G7A G40A A42C C67G	< 1e-05	< 1e-05	–
G13U U56C G62U	< 1e-05	< 1e-05	< 1e-05
A33C A42C U47G U56G	< 1e-05	–	–
C8U U47C C67G	< 1e-05	–	–

Variant	self-cleavage kobs at 640 uM GlcN6P (glucosamine-6-phosphate [1]) [s⁻¹]	self-cleavage kobs at 2500 uM GlcN6P (glucosamine-6-phosphate [2]) [s⁻¹]	self-cleavage kobs at 10000 uM GlcN6P (glucosamine-6-phosphate [3]) [s⁻¹]
C16G A48G U56G G59A	< 1e-05	–	–
A12G U46A	6e-05 ± 1.9e-05	4.25e-05 ± 1.5e-05	0.000187 ± 4.1e-05
A15C G32A G38U	< 1e-05	–	–
A52C C67U C71G	5.68e-05 ± 2.4e-05	9.24e-05 ± 3.5e-05	–
A6G C50G G51A	< 1e-05	< 1e-05	–
A33C G38C G51C A64C	< 1e-05	–	< 1e-05
G7A C11A C34U A36C U45A	< 1e-05	< 1e-05	< 1e-05
G21U G26U U65G G66U U69G	0.000207 ± 8.9e-05	–	–
C11G G13C G38C C58A	< 1e-05	< 1e-05	–
G51C A52C G60A	< 1e-05	–	–
A14C C58G C67U	5.66e-05 ± 2.2e-05	5.98e-05 ± 1.9e-05	–
C11G A48G C71U	< 1e-05	< 1e-05	–
G32C G35U G59A	< 1e-05	< 1e-05	–
U31A A33U A48G	< 1e-05	< 1e-05	–
A12C U54C C71U	0.00422 ± 0.0017	0.0234 ± 0.0081	–
U31G G37U U69G	6.98e-05 ± 2.8e-05	9.82e-05 ± 3e-05	–
A39U G40U C67A	0.000118 ± 2.9e-05	0.000561 ± 0.00019	–
G29C G43U A48G C71A	< 1e-05	< 1e-05	–
C11G C16A C50G U65G	0.000148 ± 5.2e-05	–	–
C11U G60A	< 1e-05	< 1e-05	< 1e-05
U54A G62A G66C	< 1e-05	–	–
G40U U49A	< 1e-05	< 1e-05	< 1e-05
A6U A36C G51C	< 1e-05	< 1e-05	–
G9C U65C C68U	< 1e-05	–	–
G9U A42U A48C C50G G63C C67U	< 1e-05	–	–
C16U G51A G63A G66A	< 1e-05	–	–

Variant	self-cleavage kobs at 640 uM GlcN6P (glucosamine-6-phosphate [1]) [s⁻¹]	self-cleavage kobs at 2500 uM GlcN6P (glucosamine-6-phosphate [2]) [s⁻¹]	self-cleavage kobs at 10000 uM GlcN6P (glucosamine-6-phosphate [3]) [s⁻¹]
G9U A15C	< 1e-05	–	< 1e-05
A15G C16A U30C	0.000332 ± 0.00012	0.00063 ± 0.00023	–
A36C G63A G66A	< 1e-05	–	–
G37A G63U A64C	< 1e-05	–	< 1e-05
G9U A15C C67U	< 1e-05	–	–
G35C G40C G60C	< 1e-05	–	–
G29C U65G C67G	0.000341 ± 0.00016	–	–
G51C U54A U57A	< 1e-05	< 1e-05	–
A42C A53C G60A	< 1e-05	< 1e-05	–
C19A A33U	4.59e-05 ± 2.2e-05	0.000114 ± 2.6e-05	–
U47G U49A A52G	< 1e-05	–	–
C8G C10A G38U A52G	< 1e-05	< 1e-05	–
C50U A53U C70G	5.27e-05 ± 2.4e-05	–	–
C8G A15G G40U	< 1e-05	–	–
G13A U56A C67A U69G	0.000128 ± 3.8e-05	–	–
G29C U30C U49G	< 1e-05	–	< 1e-05
A36C C70G	0.000124 ± 2.1e-05	–	–
G41U U45G U47A C71U	5.62e-05 ± 2.2e-05	–	–
G13C A48G U49C	< 1e-05	–	–
G29C U55G	0.000107 ± 1.3e-05	0.000164 ± 2.5e-05	0.000757 ± 9.6e-05
A6C C11U G51C C67G C68A	0.000105 ± 2.8e-05	0.00015 ± 3.5e-05	–
G13U G43C A64G	< 1e-05	–	–
G7U A53U U65G	< 1e-05	< 1e-05	–
C16U U46A A52U	< 1e-05	–	–
